pKd: −log10 of the molar value.

Test [1] has as its target GFP-FOXM1(688-748) (human). As to the kind of experiment: MST; GFP-fused FOXM1 protein as the fluorescent partner, synthesized peptide varied from 0.030 to 1000 µM; PBST (1×PBS 0.01 M, 0.05% Tween-20); 25 °C; Monolith NT.115, LED power 60%, medium MST power.
The target in test [2] is endogenous FOXM1 protein (human (endogenous in 293T and MDA-MB-231)) (UniProt Q08050).
In the next test the target is GFP-FOXM1 (human) (UniProt Q08050). As to the kind of experiment: MST; GFP-fused FOXM1 protein as the fluorescent partner, synthesized peptide varied from 0.030 to 1000 µM; PBST (1×PBS 0.01 M, 0.05% Tween-20); 25 °C; Monolith NT.115, LED power 60%, medium MST power.
Test [3] has as its target endogenous FOXM1 protein (human (endogenous in 293T and MDA-MB-231)) (UniProt Q08050). The source holds these as a separate data set.

Chain of endogenous FOXM1 protein (human (endogenous in 293T and MDA-MB-231)) (Q08050 whole entry, the tested form may be a part): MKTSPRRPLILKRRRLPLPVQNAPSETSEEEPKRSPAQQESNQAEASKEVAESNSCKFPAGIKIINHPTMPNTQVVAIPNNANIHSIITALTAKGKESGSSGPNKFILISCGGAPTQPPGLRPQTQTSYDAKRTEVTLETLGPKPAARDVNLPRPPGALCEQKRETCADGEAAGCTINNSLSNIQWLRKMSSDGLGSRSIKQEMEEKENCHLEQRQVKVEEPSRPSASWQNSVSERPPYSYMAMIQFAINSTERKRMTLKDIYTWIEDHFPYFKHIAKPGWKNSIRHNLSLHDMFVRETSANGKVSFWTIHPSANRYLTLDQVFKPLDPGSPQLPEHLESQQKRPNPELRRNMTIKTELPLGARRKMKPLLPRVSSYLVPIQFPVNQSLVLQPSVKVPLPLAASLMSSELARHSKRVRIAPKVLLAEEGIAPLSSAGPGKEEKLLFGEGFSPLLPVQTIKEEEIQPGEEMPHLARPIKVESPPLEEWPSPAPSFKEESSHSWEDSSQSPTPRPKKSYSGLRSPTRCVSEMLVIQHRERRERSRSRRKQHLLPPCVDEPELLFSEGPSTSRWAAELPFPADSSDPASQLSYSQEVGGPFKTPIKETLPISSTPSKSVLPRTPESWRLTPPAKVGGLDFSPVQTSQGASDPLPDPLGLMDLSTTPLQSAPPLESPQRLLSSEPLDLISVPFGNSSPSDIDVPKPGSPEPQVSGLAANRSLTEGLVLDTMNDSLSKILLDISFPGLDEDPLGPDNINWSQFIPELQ
Chain of GFP-FOXM1 (human) (Q08050 other isoform, or with tags, fused parts or gaps): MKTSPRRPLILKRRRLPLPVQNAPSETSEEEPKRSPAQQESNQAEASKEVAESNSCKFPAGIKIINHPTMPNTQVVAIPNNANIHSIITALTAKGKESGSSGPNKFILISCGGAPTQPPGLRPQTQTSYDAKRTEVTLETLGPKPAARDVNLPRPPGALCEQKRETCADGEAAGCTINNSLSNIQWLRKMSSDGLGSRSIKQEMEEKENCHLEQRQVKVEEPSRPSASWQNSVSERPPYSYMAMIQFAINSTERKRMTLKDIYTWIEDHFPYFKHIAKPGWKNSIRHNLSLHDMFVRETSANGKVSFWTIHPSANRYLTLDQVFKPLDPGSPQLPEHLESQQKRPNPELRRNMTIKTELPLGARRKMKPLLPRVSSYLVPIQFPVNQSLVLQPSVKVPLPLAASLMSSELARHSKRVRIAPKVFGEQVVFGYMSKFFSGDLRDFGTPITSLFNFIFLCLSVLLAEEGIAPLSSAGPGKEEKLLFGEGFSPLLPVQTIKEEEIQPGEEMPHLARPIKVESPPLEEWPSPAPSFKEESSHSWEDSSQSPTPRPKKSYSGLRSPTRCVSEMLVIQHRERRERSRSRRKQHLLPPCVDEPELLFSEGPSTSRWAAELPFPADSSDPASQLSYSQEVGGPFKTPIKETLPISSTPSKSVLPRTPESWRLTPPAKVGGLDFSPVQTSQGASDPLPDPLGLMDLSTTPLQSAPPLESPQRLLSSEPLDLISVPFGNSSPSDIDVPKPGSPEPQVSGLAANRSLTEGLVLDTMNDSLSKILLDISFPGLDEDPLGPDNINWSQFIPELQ

For the substance “TAT-101-121 (from UniProt Q08050 101-121) (peptide)”, the pKd (in general, the Kd on a negative log10 scale, so that one unit is a factor of ten) in test [1] was 5.26.

The substance “TAT-106-126 (from UniProt Q08050 106-126) (peptide)” showed an IC50 of cell viability, MDA-MB-231 cells, 48 h (trypan blue; Fig. 2C) in test [2] of 54.3 µM. Besides, the pKd with GFP-FOXM1 (human) is 5.15; in test [1], 5.41. The IC50 of cell viability, MDA-MB-231 cells, 48 h (trypan blue) in test [3] came out at 53.4 µM.

In test [1], “TAT-96-116 (from UniProt Q08050 96-116) (peptide)” had a pKd of 5.55.

Values taken from publication PMC10286459, “The development of an anti-cancer peptide M1-21 targeting transcription factor FOXM1” (Cell & Bioscience, 2023).
